This note sets out measurements from paper PMC10062202.

Broadly, the Km is the substrate concentration at which the rate is half of its maximum. For orientation: kcat means the number of substrate molecules converted per active site and unit of time at saturation.

Substrate in this series: CC(=O)O
The series is described as follows: purified protein. The settings on record: 5 mM ATP, 2.5 mM CoA, 6 mM MgCl2, pH 7.5, 37 °C, His-tagged.

B1: atACS (Arabidopsis acetyl-CoA synthetase) (Arabidopsis thaliana) (protein)
chain: ASEENDLVFPSKEFSGQALVSSPQQYMEMHKRSMDDPAAFWSDIASEFYWKQKWGDQVFSENLDVRKGPISIEWFKGGITNICYNCLDKNVEAGLGDKTAIHWEGNELGVDASLTYSELLQRVCQLANYLKDNGVKKGDAVVIYLPMLMELPIAMLACARIGAVHSVVFAGFSADSLAQRIVDCKPNVILTCNAVKRGPKTINLKAIVDAALDQSSKDGVSVGICLTYDNSLATTRENTKWQNGRDVWWQDVISQYPTSCEVEWVDAEDPLFLLYTSGSTGKPKGVLHTTGGYMIYTATTFKYAFDYKSTDVYWCTADCGWITGHSYVTYGPMLNGATVVVFEGAPNYPDPGRCWDIVDKYKVSIFYTAPTLVRSLMRDDDKFVTRHSRKSLRVLGSVGEPINPSAWRWFFNVVGDSRCPISDTWWQTETGGFMITPLPGAWPQKPGSATFPFFGVQPVIVDEKGNEIEGECSGYLCVKGSWPGAFRTLFGDHERYETTYFKPFAGYYFSGDGCSRDKDGYYWLTGRVDDVINVSGHRIGTAEVESALVLHPQCAEAAVVGIEHEVKGQGIYAFVTLLEGVPYSEELRKSLVLMVRNQIGAFAAPDRIHWAPGLPKTRSGKIMRRILRKIASRQLEELGDTSTLADPSVVDQLIALADV
Take B1: the Km is 180 ± 30 µM and the kcat was determined as 15.05 ± 0.65 s⁻¹.
